# Results: patent US9888679B2, “Protection of progenitor cells and regulation of their differentiation” (Proteobioactives Pty Ltd, priority 2007, dated 2018)
# Entries after “also recorded” stand apart in the source; their conditions may differ.
# Legend:
# ATDC5 cell = test: Kinetics of ATDC5 cell growth over 13 days; format: cell-based, murine; settings: rhNC4 (batch PBA-1200P) 5 ug/ml or Insulin 10 ug/ml; 20,000 cells per well at Day 0; FIG. 30
# Experimental: FIG. 30. A bar graph of the kinetics of ATDC5 cell growth induced by rhNC4 (batch PBA-1200P) (5 ug/ml) or Insulin (10 ug/ml) relative to control over 13 days. 20,000 cells per well were seeded at Day 0 (Start) with medium changes every 48 hrs. Insulin treated cultures reached confluence on day 6 and PBA-1200P on day 9. Control cultures also reached confluence on day 9 but in contrast to cultures containing insulin or PBA-1200P ceased to undergo replication.
# Murine ATDC5 cell line = test: Proteoglycan biosynthesis (35S-GAG) in pellet cultures; format: cell-based; settings: pellet cultures, FIG. 22
# Excerpt: FIG. 12. A bar graph of the concentration dependent effects of Pentosan Polysulfate (PPS), on the biosynthesis of Proteoglycans (PGs) as determined by the incorporation of radioactively labelled sulfate into the sulfated glycosaminoglycans (^35S-GAG) of PGs in 6 day pellet cultures of murine progenitor cells (ADTC-5). *=p<0.05 relative to control.
# FIG. 22. A bar graph of the concentration dependent effects of rhNC4 (batch PBA-1202P) expressed by K. lactis, in the absence (maintenance media, MM) and presence of insulin (10 micrograms/mL) (differentiation media, DM), on the biosynthesis of Proteoglycans PGs) in pellet cultures of ATDC5 cells. Data is shown as the % change relative to controls taken to be 100%.
# Murine Progenitor cells (cell lines C3H10T1/2 or ATDC5) purchased from RIKEN Cell Bank (Tsukuba, Japan) or human immunoselected Stro-1+ Progenitor cells (Mesoblast Ltd, Melbourne, Australia) were seeded in 2 ml screw-capped sterile centrifuge tubes and the total volume made-up to 1 ml with DMEM-High glucose medium containing 10% FBS. Progenitor cells were then centrifuged at 500 g for 10 min in a swing-out rotor at room temperature. The screw caps were loosened and the tubes placed in an incubator at 37° C., in a 5% CO2/95% air moist atmosphere. The pellets generally formed within 24 hours. Medium was changed daily in the first two days, then once every 2-3 days thereafter. On day 5 the medium was removed and to each tube was added 1 ml with DMEM-High glucose medium containing 10% FBS, 5.0 μCi/ml ^35S-H2SO4 and various concentrations of PPS (0, 0.1, 0.5, 1.0, 2.5, 5.0, 10.0, 20.0, μg/ml) (FIG. 12-15) or rhNC4 (0, 0.1, 0.5, 1.0, 2.0 μg/ml) (FIG. 22). Triplicate cultures were used for all concentration of drugs. The screw caps were loosened and the tubes placed in an incubator at 37° C., in a 5% CO2/95% moist air atmosphere […]. On day 6, 200 μl of stock papain solution [2.5 mg/ml papain, 7.9 mg/ml L-Cystein in papain buffer (0.1 M NaAC, 5 mM EDTA, pH6.0)] was added to each tube. The tubes were tightly capped and incubated at 65° C. for 2 hours. After papain digestion, 4 replicates of 200 μl of papain digested solution were separately transferred to a 96-well micro-titre plate (200 μl/well). The remaining solution was used for the DNA fluorometric assays which were undertaken in triplicate as described above. Biosynthesis of ^35S-GAGs was determined as described for the monolayer cultures and the results expressed as ^35-S-GAGs/μg DNA.
# Data is shown as the % of controls taken to be 100%.
# [1] = test system: murine ATDC5 progenitor cells; test: Proteoglycan biosynthesis (35S-GAG) in monolayer cultures, maintenance or differentiation media; format: cell-based
# Excerpt: (§1) FIG. 21. A bar graph of the concentration dependent effects of rhNC4 (batch PBA-1202P) expressed by K. lactis, in the absence (maintenance media, MM) and presence of insulin (10 micrograms/mL) (differentiation media, DM), on the biosynthesis of Proteoglycans (PGs) as determined by the incorporation of radioactively labelled sulfate into the sulfated glycosaminoglycans (^35S-GAG) of PGs after 3 day culture with Murine ATDC5 progenitor cells. The data was expressed as % change relative to control cultures that contained no rhNC4. P<0.05 was statistically significant relative to control cultures.
# FIG. 24. A bar graph of the concentration dependent effects of combinations of rhNC4 (batch PBA-1202P) and Pentosan Polysulfate (PPS) on the biosynthesis of 35S-PGs by monolayer cultures of Murine ATDC5 progenitor cells. Data is expressed relative to control (maintenance media, MM) which was taken as 100%.
# as §1, with “31.” for “21.”
# FIG. 32. A bar graph of the concentration dependent effects of Pentosan Polysulfate (PPS), in the presence of insulin (10 micrograms/mL), on the biosynthesis of Proteoglycans PGs) as determined by the incorporation of radioactively labelled sulfate into the sulfated glycosaminoglycans (^35S-GAG) of PGs after 3 day culture with Murine ATDC5 progenitor cells. The data was expressed as ^35S-GAG radioactivity as counts per minute (CPM) and decays per minute (DPM) relative to control cultures that contained no PPS. P<0.05 was statistically significant relative to control cultures.
# Murine Progenitor cells (cell lines C3H10T1/2 or ATDC5) purchased from RIKEN Cell Bank (Tsukuba, Japan) or human immunoselected Stro-1+ Progenitor cells (Mesoblast Ltd, Melbourne, Australia) were seeded into 50 mL plastic culture flasks containing 1:1 high glucose DMEM/Ham's F-12 medium (Invitrogen) supplemented with 10% FBS (Sigma) and incubated at 37° C., in 5% CO2. […] The experiments were generally terminated after 48 hours incubation when proteoglycan biosynthesis was determined by measuring the incorporation of ^35SO4 into the glycosaminoglycans (^35S-GAGs) as described below.
# The data was expressed as % change relative to control cultures that contained no rhNC4. […]
molecule,measurement,setting,value
"rhNC4: recombinant human non collagenous NC4 domain of the alpha-1 chain of type IX collagen, expressed by K. lactis (protein, listed as Homo sapiens) AVKRRPRFPVNSNSNGGNELCPKIRIGQDDLPGFDLISQFQVDKAASRRAIQRVVGSATLQVAYKLGNNVDFRIPTRNLYPSGLPEEYSFLTTFRMTGSTLKKNWNIWQIQDSSGKEQVGIKINGQTQSVVFSYKGLDGSLQTAAFSNLSSLFDSQWHKIMIGVERSSATLFVDCNRIESLPIKPRGPIDIDGFAVLGKLADNPQVSVPFELQWMLIHCDPLRPRRETCHELPARITPSQTTDER",day on which cultures reached confluence,ATDC5 cell,9 days
same,rhNC4 concentration producing the optimum effect on PG synthesis,Murine ATDC5 cell line; maintenance media,0.5 micrograms/mL
same,PG synthesis,Murine ATDC5 cell line; rhNC4,stimulatory effect
same,rhNC4 concentration of maximum effects on PG synthesis,"[1]; maintenance and differentiation media, FIG. 21",1 microgram/mL
same,PG synthesis,"[1]; rhNC4, absence (maintenance media) and presence of insulin (differentiation media), 3 day culture, FIG. 21/31",stimulated PG synthesis; also recorded: concentration dependent stimulation of PG synthesis
